T1: human FcγRIIaR extracellular domain, His-tagged (human, UniProt P12318 34-217)
T1 construct: also called human FcgRIIaR; FcγRIIa (type R); not shown: His-tag added to the C-terminus
T1 chain: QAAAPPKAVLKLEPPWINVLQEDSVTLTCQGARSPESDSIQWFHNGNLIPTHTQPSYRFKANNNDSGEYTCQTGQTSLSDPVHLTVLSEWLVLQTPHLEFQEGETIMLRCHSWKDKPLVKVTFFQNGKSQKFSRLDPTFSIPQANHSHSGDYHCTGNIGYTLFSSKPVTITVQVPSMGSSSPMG

T2: cynomolgus monkey FcγRIIb extracellular domain, His-tagged (cynomolgus monkey)
T2 construct: also called cyno FcgRIIb; cynoFcγRIIb; not shown: His-tag added to the C-terminus
T2 chain: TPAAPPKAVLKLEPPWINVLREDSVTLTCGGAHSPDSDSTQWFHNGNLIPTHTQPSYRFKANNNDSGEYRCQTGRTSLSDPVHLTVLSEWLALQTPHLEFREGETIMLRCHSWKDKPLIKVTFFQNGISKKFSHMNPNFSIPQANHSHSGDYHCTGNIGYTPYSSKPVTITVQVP

T3: human FcγRIIb extracellular domain, His-tagged (human, UniProt P31994 43-217)
T3 construct: also called human FcgRIIb; not shown: His-tag added to the C-terminus
T3 sequence: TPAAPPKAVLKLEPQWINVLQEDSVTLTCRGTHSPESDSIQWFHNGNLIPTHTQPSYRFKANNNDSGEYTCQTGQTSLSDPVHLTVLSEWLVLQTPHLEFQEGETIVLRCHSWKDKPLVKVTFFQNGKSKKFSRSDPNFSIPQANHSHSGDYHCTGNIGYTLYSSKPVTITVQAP


How the values were obtained:
Assay in all cases: SPR; KD of SG1 divided by KD of the variant;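 further: relative to parent M103205H795-SG1 carrying the SG1 human heavy chain constant region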
[1] = target: T4, cynomolgus monkey FcγRIIIaS extracellular domain, His-tagged (cynomolgus monkey, UniProt A3RFZ7 21-206 (rhesus entry))
T4 construct: also called cyno FcgRIIIaS; cynoFcγRIIIaS; not shown: His-tag added to the C-terminus
Experimental: (§1) Regarding such interactions, KD values were calculated using the following 1:1 binding model described in BIACORE® T100 Software Handbook BR1006-48 Edition AE.
(§2) The behavior of interacting molecules according to the 1:1 binding model on BIACORE® can be described by Equation 1: Req=C·R max/(KD+C)+RI, wherein, Req is a plot of steady-state binding levels to analyte concentration. C is concentration, RI is bulk refractive index contribution in the sample, and Rmax is analyte binding capacity of the surface. When this equation is rearranged, KD can be expressed as Equation 2: KD=C·Rmax/(Req−RI)−C. KD can be calculated by substituting the values of Rmax, RI, and C into Equation 1 or Equation 2. From the current measurement conditions, RI=0, C=2 μmol/L can be used.
(§3) The resultant variants were expressed using M103202L889-SK1 as light chain and their affinity to human and cynoFcγRs were evaluated (Table 21).

[2] = target: T1, human FcγRIIaR extracellular domain, …
Experimental: as §1, §2, §3

[3] = target: T2, cynomolgus monkey FcγRIIb extracellular …
Experimental: as §1, §2, §3

[4] = target: T3, human FcγRIIb extracellular domain, …
Experimental: as §1, §2, §3

[5] = target: T5, human FcγRIIIaV extracellular domain, His-tagged (human, UniProt P08637 17-208)
T5 construct: also called human FcgRIIIaV; not shown: His-tag added to the C-terminus
Experimental: as §1, §2, §3

T5 sequence (P08637 17-208 F176V): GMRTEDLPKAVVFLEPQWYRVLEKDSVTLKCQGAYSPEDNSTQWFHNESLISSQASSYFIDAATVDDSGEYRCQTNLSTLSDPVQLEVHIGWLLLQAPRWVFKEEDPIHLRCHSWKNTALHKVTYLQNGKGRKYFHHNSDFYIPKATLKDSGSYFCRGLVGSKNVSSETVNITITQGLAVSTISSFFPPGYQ
T4 sequence (A3RFZ7 21-206): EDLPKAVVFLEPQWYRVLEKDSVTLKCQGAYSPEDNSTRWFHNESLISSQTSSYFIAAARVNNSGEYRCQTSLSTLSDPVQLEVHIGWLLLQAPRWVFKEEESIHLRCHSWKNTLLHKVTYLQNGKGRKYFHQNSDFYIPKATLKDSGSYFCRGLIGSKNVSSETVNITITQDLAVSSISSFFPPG

KD fold (SG1 = 1) [1] [fold]	KD fold (SG1 = 1) [2] [fold]	KD fold (SG1 = 1) [3] [fold]	KD fold (SG1 = 1) [4] [fold]	KD fold (SG1 = 1) [5] [fold]	Binder
0.18	2.5	3.1	2.1	0.15	M103205H795-MY265/M103202L889-SK1 (antibody, human IgG1, kappa, copies: 2 + 2) heavy: QVTLKESGPVLVKPTETLTLTCTVSGIDLSHDDISWVRQAPGKGLEWVGIISYAGSTYYASWAKGRLTISKDTSKNQVVLTMTNMDPVDTATYYCARGVPAYSHGGDLWGQGTLVTVSSASTKGPSVFPLAPSSKSTSGGTAALGCLVKDYFPEPVTVSWNSGALTSGVHTFPAVLQSSGLYSLSSVVTVPSSSLGTQTYICNVNHKPSNTKVDKKVEPKSCDKTHTCPPCPAPELLTGPSVFLFPPKPKDTLMISRTPEVTCVVVDVSDEDPEVKFNWYVDGVEVHNAKTKPREEQYNSTYRVVSVLTVLHQDWLNGKEYKCKVSNKALPKPIEKTISKAKGQPREPQVYTLPPSREEMTKNQVSLTCLVKGFYPSDIAVEWESNGQPENNYKTTPPVLDSDGSFFLYSKLTVDKSRWQQGNVFSCSVMHEALHNHYTQKSLSLSP light: DIVMTQSPATLSLSPGERATLSCTSSQSVYHANWLSWFQQKPGQPPKLLIYWASTLAYGVPSRFSGSGSGTDFTLTISSLQPEDAATYYCAGGYGGGRYAFGQGTKVEIKRTVAAPSVFIFPPSDEQLKSGTASVVCLLNNFYPREAKVQWKVDNALQSGNSQESVTEQDSKDSTYSLSSTLTLSKADYEKHKVYACEVTHQGLSSPVTKSFNRGEC
0.13	2.5	2.1	0.8	0.05	M103205H795-MY267/M103202L889-SK1 (antibody, human IgG1, kappa, copies: 2 + 2) heavy: QVTLKESGPVLVKPTETLTLTCTVSGIDLSHDDISWVRQAPGKGLEWVGIISYAGSTYYASWAKGRLTISKDTSKNQVVLTMTNMDPVDTATYYCARGVPAYSHGGDLWGQGTLVTVSSASTKGPSVFPLAPSSKSTSGGTAALGCLVKDYFPEPVTVSWNSGALTSGVHTFPAVLQSSGLYSLSSVVTVPSSSLGTQTYICNVNHKPSNTKVDKKVEPKSCDKTHTCPPCPAPELLIGPSVFLFPPKPKDTLMISRTPEVTCVVVDVSDEDPEVKFNWYVDGVEVHNAKTKPREEQYNSTYRVVSVLTVLHQDWLNGKEYKCKVSNKALPKPIEKTISKAKGQPREPQVYTLPPSREEMTKNQVSLTCLVKGFYPSDIAVEWESNGQPENNYKTTPPVLDSDGSFFLYSKLTVDKSRWQQGNVFSCSVMHEALHNHYTQKSLSLSP light: DIVMTQSPATLSLSPGERATLSCTSSQSVYHANWLSWFQQKPGQPPKLLIYWASTLAYGVPSRFSGSGSGTDFTLTISSLQPEDAATYYCAGGYGGGRYAFGQGTKVEIKRTVAAPSVFIFPPSDEQLKSGTASVVCLLNNFYPREAKVQWKVDNALQSGNSQESVTEQDSKDSTYSLSSTLTLSKADYEKHKVYACEVTHQGLSSPVTKSFNRGEC
